Three substances from article PMC4791394 can be followed below.

This test has as its target taxol-stabilized microtubules. Kind of test: co-sedimentation; normalized COS7 lysates in PEM buffer incubated with taxol-stabilized microtubules with 2.5 mM AMP-PNP, RT 30 min; 100,000 x g 40 min through a taxol-supplemented cushion; supernatant and pellet blotted for KIF5 and tubulin.
Substance “KIF5C(1-560)^S176D-3xmCit (from UniProt P28738 1-560) (domain or fragment)” came in with a percent co-purified with microtubules of 60%. Under “KIF5C(1-560)^S176A-3xmCit (from UniProt P28738 1-560) (domain or fragment)” stands 100%; under “KIF5C(1-560)^WT-3xmCit (from UniProt P28738 1-560) (domain or fragment)”, 100%.
